# Earlier results in patent EP0259891B1, “[Leu 13] motilin, DNAs coding for same and methods for producing same” (KYOWA HAKKO KOGYO CO., LTD., priority 1986, dated 1995).
# Settings: 13th amino acid Met oxidised; M. Fujino et al., Chem. Pharm. Bull., 26, 101 (1978)
substance,measurement,value
"motilin: physiologically active peptide occurring in the mammalian blood, composed of 22 amino acid residues, 13th amino acid Met",motilin activity after oxidation of Met to the sulfoxide form,decreased motilin activity
